The source of these data is patent US20230310432A1 (JULIUS-MAXIMILIANS-UNIVERSITÄT WÜRZBURG, priority 2017, published 2023).

Experiment [1] concerns CD8+ T cells expressing a CD19 CAR with 4-1BB costimulation. Description: Bioluminescence-based cytotoxicity assay, K562/CD19 target cells. The format is cell-based, human. How it is done: Cytotoxicity: Target cells were stably transduced with ffluc_GFP and incubated in triplicate wells at 1×10^4 cells/well with effector T cells at an effector to target (E:T) ratio of 5:1. D-luciferin substrate (Biosynth, Staad, Switzerland) was added to the co-culture to a final concentration of 0.15 mg/ml and the decrease in luminescence signal in wells that contained target cells and T-cells was measured using a luminometer (Tecan, Mannedorf, Switzerland). Specific lysis was calculated using the standard formula.
The inventors prepared CD8+ CAR-T cell lines from n=3 healthy donors. In each of the T-cell lines, the inventors enriched CAR-expressing T cells to >90% purity using the EGFRt-transduction marker. The inventors analyzed cytolytic activity of CD8^+ CAR-T cells in a bioluminescence-based cytotoxicity assay using K562 that the inventors had transduced with either CD19 (for testing CD19 CAR-T cells) or ROR1 (for testing ROR1 CAR-T cells) as target cells. Dasatinib was added to the assay medium at the beginning of the assay.
The inventors prepared CD8^+ CAR-T cell lines from n=3 healthy donors. In each of the T-cell lines, the inventors enriched CAR-expressing T cells to >90% purity using the EGFRt-transduction marker. The inventors analyzed cytolytic activity of CD8^+ CAR-T cells in a bioluminescence-based cytotoxicity assay using K562 target cells that the inventors had transduced with CD19.
The CAR-T cell cytolytic activity was analyzed at 1-hour intervals for 10 hours.
The inventors analyzed cytolytic activity of CD8+ CAR-T cells in a bioluminescence-based cytotoxicity assay.
The inventors prepared CD8^+ CD19 CAR-T cell lines with a 4-1BB costimulatory domain from one healthy donor. In the T-cell line, the inventors enriched CAR expressing T cells to >90% purity using the EGFRt-transduction marker. The inventors analyzed cytolytic activity of CD8^+ CAR-T cells in a 4-hour bioluminescence-based cytotoxicity assay using K562 that the inventors had transduced with CD19 as target cells to assess the influence of a panel of Src-kinase inhibitors on the cytolytic function of CAR-T cells. Src-kinase inhibitors were added to the assay medium at the beginning of the assay over a 4-log concentration range.

Experiment [2] shares this test system. Description: CFSE proliferation assay, co-culture with K562/CD19. The format is cell-based, human. The following applies: dexamethasone, any given concentration; 24 h-pretreatment or at start of co-culture; 72 h.
Experiment [3] has the same test system. In words: Cytokine production and secretion (IFN-γ, IL-2 ELISA), co-culture with K562/CD19. Format: cell-based, human. The settings on record: any given concentration of dexamethasone; pre-treated or during assay only. For orientation: An ELISA detects its analyte on a solid surface through an enzyme-linked reagent.
For experiment [4], the system named is CAR-T cells co-expressing the iCasp suicide gene. In words: Elimination of iCasp+ T cells. The settings on record: dimerizer (10 nM AP20187) without dasatinib; 24 hours. Format: cell-based, human. As to the method: After 24 hours, cells were labeled with anti-CD3 mAB and analyzed by flow cytometry for the presence of iCasp+ T cells.
After 24 hours, cells were labeled with anti-CD3 mAB and analyzed by flow cytometry for the presence of iCasp^+ T cells.

The subject of experiment [5] is CD8+ T cells expressing a ROR1 CAR with 4-1BB costimulatory domain. Description: IFN-γ ELISA, co-culture with RCH-ACV. Format: cell-based, human. The following applies: […] nilotinib; 20 h; 1310 pg/ml by untreated CAR-T cells.
Another experiment concerns the target human SLAMF7 (human) (UniProt Q9NQ25). Description: cell-based or functional assay.
For another experiment, the target named is human ROR1 (human) (UniProt Q01973). In words: cell-based or functional assay.

As for `Cc1ccc(-c2nn(C(C)(C)C)c3ncnc(N)c23)cc1` [PP1-inhibitor], in experiment [1] (inhibitor 10 nM, 4-hour assay, 82% by untreated CAR-T cells), the “specific lysis of target cells” value is on record as 62.4%.
In the case of `C[C@@H]1C[C@H]2[C@@H]3CCC4=CC(=O)C=C[C@]4(C)[C@@]3(F)[C@@H](O)C[C@]2(C)[C@@]1(O)C(=O)CO` [dexamethasone], the “specific lysis of target cells” value in experiment [1] (dexamethasone added at the beginning of the assay, any of the applied dosages (0.1-100 μM), 91% non-treated) is given as greater than 87%. The “specific lysis of target cells” value in experiment [1] (pre-treated for 24 h with dexamethasone, all tested doses, t=10 h, 91% non-treated) was greater than 45%. The “remaining proliferation compared to untreated CAR-T cells” value in experiment [2] is “less than 26%”. In experiment [3], the “residual specific IFN-γ secretion compared to non-treated CAR-T cells” value is “more than 43%” and the “residual specific IL-2 secretion compared to non-treated CAR-T cells” value was “less than 17%”.
Take `CC[C@H](C(=O)N1CCCC[C@H]1C(=O)O[C@H](CCc1ccc(OC)c(OC)c1)c1cccc(OCC(=O)NCC(CNC(=O)COc2cccc([C@@H](CCc3ccc(OC)c(OC)c3)OC(=O)[C@@H]3CCCCN3C(=O)[C@@H](CC)c3cc(OC)c(OC)c(OC)c3)c2)CN(C)C)c1)c1cc(OC)c(OC)c(OC)c1` [dimerizer, AP20187]: the “percentage of iCasp+ cells” value in experiment [4] was 45%.
Consider `Cc1cn(-c2cc(NC(=O)c3ccc(C)c(Nc4nccc(-c5cccnc5)n4)c3)cc(C(F)(F)F)c2)cn1` [nilotinib], for which the “production and secretion of IFN-γ” value in experiment [5] came to 480 pg/mL.

B1: SLAMF7 CAR with 4-1BB costimulatory domain (receptor)
chain: EVQLVESGGGLVQPGGSLRLSCAASGFDFSRYWMSWVRQAPGKGLEWIGEINPDSSTINYAPSLKDKFIISRDNAKNSLYLQMNSLRAEDTAVYYCARPDGNYWYFDVWGQGTLVTVSSGGGGSGGGGSGGGGSDIQMTQSPSSLSASVGDRVTITCKASQDVGIAVAWYQQKPGKVPKLLIYWASTRHTGVPDRFSGSGSGTDFTLTISSLQPEDVATYYCQQYSSYPYTFGQGTKVEIKESKYGPPCPPCPAPPVAGPSVFLFPPKPKDTLMISRTPEVTCVVVDVSQEDPEVQFNWYVDGVEVHNAKTKPREEQFQSTYRVVSVLTVLHQDWLNGKEYKCKVSNKGLPSSIEKTISKAKGQPREPQVYTLPPSQEEMTKNQVSLTCLVKGFYPSDIAVEWESNGQPENNYKTTPPVLDSDGSFFLYSRLTVDKSRWQEGNVFSCSVMHEALHNHYTQKSLSLSLGKMFWVLVVVGGVLACYSLLVTVAFIIFWVKRGRKKLLYIFKQPFMRPVQTTQEEDGCSCRFPEEEEGGCELRVKFSRSADAPAYQQGQNQLYNELNLGRREEYDVLDKRRGRDPEMGGKPRRKNPQEGLYNELQKDKMAEAYSEIGMKGERRRGKGHDGLYQGLSTATKDTYDALHMQALPPR
In the experiment with human SLAMF7 (human), B1 had a specific lysis of K562/SLAMF7 target cells by CD8+ CAR-T cells without dasatinib, t=6 h of 63% and a specific lysis of K562/SLAMF7 target cells by CD8+ CAR-T cells without dasatinib, t=12 h of 83%.

B2: SLAMF7 CAR with CD28 costimulatory domain (receptor)
chain: EVQLVESGGGLVQPGGSLRLSCAASGFDFSRYWMSWVRQAPGKGLEWIGEINPDSSTINYAPSLKDKFIISRDNAKNSLYLQMNSLRAEDTAVYYCARPDGNYWYFDVWGQGTLVTVSSGGGGSGGGGSGGGGSDIQMTQSPSSLSASVGDRVTITCKASQDVGIAVAWYQQKPGKVPKLLIYWASTRHTGVPDRFSGSGSGTDFTLTISSLQPEDVATYYCQQYSSYPYTFGQGTKVEIKESKYGPPCPPCPAPPVAGPSVFLFPPKPKDTLMISRTPEVTCVVVDVSQEDPEVQFNWYVDGVEVHNAKTKPREEQFQSTYRVVSVLTVLHQDWLNGKEYKCKVSNKGLPSSIEKTISKAKGQPREPQVYTLPPSQEEMTKNQVSLTCLVKGFYPSDIAVEWESNGQPENNYKTTPPVLDSDGSFFLYSRLTVDKSRWQEGNVFSCSVMHEALHNHYTQKSLSLSLGKMFWVLVVVGGVLACYSLLVTVAFIIFWVRSKRSRGGHSDYMNMTPRRPGPTRKHYQPYAPPRDFAAYRSRVKFSRSADAPAYQQGQNQLYNELNLGRREEYDVLDKRRGRDPEMGGKPRRKNPQEGLYNELQKDKMAEAYSEIGMKGERRRGKGHDGLYQGLSTATKDTYDALHMQALPPR
Turning to B2, in the experiment with human SLAMF7 (human), the specific lysis of K562/SLAMF7 target cells by CD8+ CAR-T cells without dasatinib, t=6 h is 67% and the specific lysis of K562/SLAMF7 target cells by CD8+ CAR-T cells without dasatinib, t=12 h came to 85%.

B3: ROR1 CAR with 4-1BB costimulatory domain (receptor)
chain: QVQLVESGGALVQPGGSLTLSCKASGFDFSAYYMSWVRQAPGKGLEWIATIYPSSGKTYYAASVQGRFTISADNAKNTVYLQMNSLTAADTATYFCARDSYADDGALFNIWGQGTLVTVSSGGGGSGGGGSGGGGSQLVLTQSPSVSAALGSSAKITCTLSSAHKTDTIDWYQQLAGQAPRYLMYVQSDGSYEKRSGVPDRFSGSSSGADRYLIISSVQADDEADYYCGADYIGGYVFGGGTQLTVGESKYGPPCPPCPMFWVLVVVGGVLACYSLLVTVAFIIFWVKRGRKKLLYIFKQPFMRPVQTTQEEDGCSCRFPEEEEGGCELRVKFSRSADAPAYQQGQNQLYNELNLGRREEYDVLDKRRGRDPEMGGKPRRKNPQEGLYNELQKDKMAEAYSEIGMKGERRRGKGHDGLYQGLSTATKDTYDALHMQALPPR
In the experiment with human ROR1 (human), B3 displayed an IFN-γ in supernatant (ELISA) of co-culture with RCH-ACV target cells, untreated CD8+ CAR-T cells of 1310 pg/mL; a proliferation index (CFSE) after 72 h co-culture with RCH-ACV, untreated CD8+ CAR-T cells of 2.84; a specific lysis of K562/ROR1 target cells by CD8+ CAR-T cells without dasatinib, t=10 h of 94%; a specific lysis of K562/ROR1 target cells by CD8+ CAR-T cells without dasatinib, up to t=5 h of 73%. Besides, the specific lysis of RCH-ACV target cells by untreated CD8+ CAR-T cells, t=8 hours with human ROR1 (human) is greater than 90%.
